Measurements taken from US5871732.

Tests used:
[1] = biological target: recombinant soluble CD4 (human CD4 AA1-AA375) (human) (UniProt P01730); assay: RIA, 125I-rsCD4 preincubated with the soluble antibody; competitor: immobilised 5A8
[2] = biological target: CD4-V1V2 polypeptide (AA1-AA180 of human CD4) (human) (UniProt P01730); assay: RIA, antibody captured on goat anti-mouse IgG; CD4-V1V2 (5 µg/ml) competing with 125I-rsCD4
[3] = biological target: CD4-V1 polypeptide (AA1-AA113 and/or AA1-AA111 of human CD4) (human) (UniProt P01730); assay: RIA, antibody captured on goat anti-mouse IgG; CD4-V1 (5 µg/ml) competing with 125I-rsCD4
[4] = biological target: recombinant soluble CD4 (human CD4 AA1-AA375) (human) (UniProt P01730); assay: RIA, immobilised antibody; 125I-rsCD4 preincubated with the soluble competitor OKT4
[5] = biological target: recombinant soluble CD4 (human CD4 AA1-AA375) (human) (UniProt P01730); assay: RIA, immobilised antibody; 125I-rsCD4 preincubated with the competitor HIV r-gp120 (2.5 µg/ml)
[6] = biological target: recombinant soluble CD4 (human CD4 AA1-AA375) (human) (UniProt P01730); assay: RIA, immobilised antibody; 125I-rsCD4 preincubated with the soluble competitor Leu3A
[7] = biological target: mouse/human substitution mutant of rsCD4 at AA60 (V1) (human) (UniProt P01730); assay: mutant rsCD4 (1 µg/ml) as competitor of OKT4 binding to CD4+ cells
[8] = biological target: mouse/human substitution mutant of rsCD4 at AA240-AA252 (V3) (human) (UniProt P01730); assay: as above
[9] = biological target: mouse/human substitution mutant of rsCD4 at AA127-AA134 (V2) (human) (UniProt P01730); assay: as above
[10] = biological target: mouse/human substitution mutant of rsCD4 at AA220-AA226 (V3) (human) (UniProt P01730); assay: as above
[11] = biological target: mouse/human substitution mutant of rsCD4 at AA121-AA124 (V2) (human) (UniProt P01730); assay: as above
[12] = biological target: mouse/human substitution mutant of rsCD4 at AA165 (V2) (human) (UniProt P01730); assay: as above
[13] = biological target: recombinant soluble CD4 (human CD4 AA1-AA375) (human) (UniProt P01730); assay: RIA, immobilised antibody; 125I-rsCD4 preincubated with the soluble competitor OKT4A
[14] = biological target: human CD4 displayed on the surface of CD4+ cells (human) (UniProt P01730)

| Substance | % Inhibition rsCD4 Binding [1] [%] | CD4-V1V2 % Inhibition of rsCD4 Binding [2] [%] | CD4-V1 % Inhibition of rsCD4 Binding [3] [%] | % Inhibition rsCD4 Binding By OKT4 [4] [%] | HIV r-gp120 % Inhibition rsCD4 Binding [5] [%] | % Inhibition rsCD4 Binding By Leu 3A [6] [%] | % blocking of OKT4 binding to CD4+ cells [7] [%] | % blocking of OKT4 binding to CD4+ cells [8] [%] | % blocking of OKT4 binding to CD4+ cells [9] [%] | % blocking of OKT4 binding to CD4+ cells [10] [%] | % blocking of OKT4 binding to CD4+ cells [11] [%] | % blocking of OKT4 binding to CD4+ cells [12] [%] | % Inhibition rsCD4 Binding By OKT4A [13] [%] | concentration inhibiting syncytia formation 50% [14] [µg/mL] |
| --- | --- | --- | --- | --- | --- | --- | --- | --- | --- | --- | --- | --- | --- | --- |
| OKT4, CD4 V3V4-specific anti-CD4 mouse monoclonal antibody (Ortho Diagnostic Systems) | 4 | 14.4 | -5.5 | 91.3 | -8.2 | 8.4 | 60 | 60 | 60 | 60 | 60 | 60 | 3.6 | – |
| Leu3A, CD4 V1-specific monoclonal antibody (Becton Dickinson) | 0 | 94 | 88.2 | -10.3 | 85.1 | 85.8 | – | – | – | – | – | – | 73.9 | 0.02 |
| OKT4A, CD4 V1-specific anti-CD4 mouse monoclonal antibody (Ortho Diagnostic Systems) | – | 95.5 | 87.3 | -26.8 | 66.1 | 62 | – | – | – | – | – | – | 68.5 | – |
